Legend:
[1] = target: human MSLN expressed on cancer cell surface (human) (UniProt Q13421); assay: flow cytometry on H226 cells expressing MSLN, control antibody, PE-conjugated anti-human IgG detection
[2] = target: human MSLN expressed on cancer cell surface (human) (UniProt Q13421); assay: flow cytometry on PL45 cells expressing MSLN, control antibody, PE-conjugated anti-human IgG detection
[3] = target: human MSLN expressed on cancer cell surface (human) (UniProt Q13421); assay: flow cytometry on AsPC1 cells expressing MSLN, control antibody, PE-conjugated anti-human IgG detection
[4] = target: human MSLN expressed on cancer cell surface (human) (UniProt Q13421); assay: flow cytometry on Capan2 cells expressing MSLN, control antibody, PE-conjugated anti-human IgG detection
recombinant human MSLN = target: T1, recombinant human MSLN (human, UniProt Q13421 296-580, limits assumed); assay: BLI (Octet), MSLN on anti-Penta His sensor, antibody 3.125-50 nM
T1 construct: It was fixed to an anti-Penta His (HIS1K) sensor, so a His tag is implied; also called recombinant MSLN; mesothelin
Method: Specifically, recombinant human MSLN was prepared at a concentration of 5 μg/ml in 1× kinetic buffer and used to treat a 96-well-plate at 200 μl/well. The MSLN after treatment was fixed to the anti-Penta His (HIS1K, Cat #18-5121, Fortebio) sensor.
Then, the 3 humanized anti-MSLN antibodies produced in accordance with Example 1 and the mouse human chimeric MI323 IgG1 clones were diluted to a concentration of 50, 25, 12.5, 6.25, or 3.125 nM in 1× kinetic buffer, and treatment therewith was performed at 200 μl/well. For the 1×kinetic buffer, one obtained by 10-fold dilution of 10×kinetic buffer (ForteBio, Cat #18-1092) with PBS was used.
The interaction between the MSLN fixed to the sensor and the antibody at several concentrations was analyzed to calculate antigen-antibody affinity, and the results are shown in Table 4 below.

T1 sequence (Q13421 other isoform, or with tags, fused parts or gaps limits assumed): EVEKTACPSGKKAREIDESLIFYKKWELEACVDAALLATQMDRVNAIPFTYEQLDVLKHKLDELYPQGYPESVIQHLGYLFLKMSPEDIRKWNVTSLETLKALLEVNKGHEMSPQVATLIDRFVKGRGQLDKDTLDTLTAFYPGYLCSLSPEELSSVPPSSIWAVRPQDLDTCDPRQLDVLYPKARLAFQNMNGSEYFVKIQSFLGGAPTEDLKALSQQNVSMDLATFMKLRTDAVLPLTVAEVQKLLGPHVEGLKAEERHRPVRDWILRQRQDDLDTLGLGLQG
human MSLN expressed on cancer cell surface (human), sequence (Q13421 other isoform, or with tags, fused parts or gaps limits assumed): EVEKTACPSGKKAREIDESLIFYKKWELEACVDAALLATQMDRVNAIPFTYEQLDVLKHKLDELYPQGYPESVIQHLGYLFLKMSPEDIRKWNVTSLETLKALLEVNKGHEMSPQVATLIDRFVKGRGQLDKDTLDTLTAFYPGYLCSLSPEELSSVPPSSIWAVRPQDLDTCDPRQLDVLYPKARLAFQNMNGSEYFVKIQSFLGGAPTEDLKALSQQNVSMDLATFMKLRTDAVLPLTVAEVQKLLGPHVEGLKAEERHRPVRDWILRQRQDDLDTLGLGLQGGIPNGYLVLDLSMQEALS

Row | Molecule | MFI [1] | MFI [2] | MFI [3] | MFI [4] | Kd (recombinant human MSLN) | koff (recombinant human MSLN) | kon (recombinant human MSLN)
1 | hIgG (antibody) | 120 | 96.5 | 85.9 | 169 |  |  | 
2 | HMI323VL-1/HMI323VH-3 IgG1 (antibody, V domains shown, also called humanized MI323 IgG1) VH: EVQLVQSGAEVKKPGTSVKVSCKASGYSFTSYFIQWVRQAPGQGLEWIGWIFPGSGNTKYSQKFQGRVTITRDTSTSTAYMELSSLRSEDTAVYYCARSGGYQYYFDYWGQGTLVTVSS VL: DIQMTQSPSSLSASVGDRVTITCRASQDVSTAVAWYQQKPGKAPKLLIYSASYRYPGVPSRFSGSGSGTDFTLTISSLQPEDFATYYCQQHYSTPWTFGGGTKLEIKR |  |  |  |  | 0.0327 nM | 2.75e-05 s⁻¹ | 842000 M⁻¹ s⁻¹
3 | HMI323VL-1/HMI323VH-2 (antibody, human IgG1, kappa, V domains shown, also called humanized MI323 IgG1 (VL-1/VH-2)) VH: QVQLVQSGAEVKKPGSSVKVSCKASGYSFTSYFISWVRQAPGQGLEWMGGIFPGSGNANYAQKFQGRVTITADESTSTAYMELSSLRSEDTAVYYCARSGGYQYYFDYWGQGTLVTVSS VL: DIQMTQSPSSLSASVGDRVTITCRASQDVSTAVAWYQQKPGKAPKLLIYSASYRYPGVPSRFSGSGSGTDFTLTISSLQPEDFATYYCQQHYSTPWTFGGGTKLEIKR |  |  |  |  | 0.273 nM | 0.000509 s⁻¹ | 1.86e+06 M⁻¹ s⁻¹
4 | HMI323VL-1/HMI323VH-1 (antibody, human IgG1, kappa, V domains shown, also called humanized MI323 IgG1 (VL-1/VH-1)) VH: QVQLVQSGAEVKKPGASVKVSCKASGYSFTSYFMHWVRQAPGQRLEWMGWIFPGNGNTKYSQKFQGRVTITRDTSASTAYMELSSLRSEDTAVYYCARSGGYQYYFDYWGQGTLVTVSS VL: DIQMTQSPSSLSASVGDRVTITCRASQDVSTAVAWYQQKPGKAPKLLIYSASYRYPGVPSRFSGSGSGTDFTLTISSLQPEDFATYYCQQHYSTPWTFGGGTKLEIKR |  |  |  |  | 0.139 nM | 9.25e-05 s⁻¹ | 665000 M⁻¹ s⁻¹
5 | mouse/human chimeric MI323 IgG1 (antibody, V domains shown, Control antibody; also called mouse human chimeric MI323 IgG1 antibody; MI323 antibody) VH: EVQLQQSGPELVKPGTSVKISCKASGYSFTSYFIQWVKQRPGQGLEWIGWIFPGSGNTKYNEMFKGKATLAADTSSSTAYMQLSSLTSEDSAVYFCARSGGYQYYFDYWGQGTSVTVSS VL: DIVMTQSHKFMSTSVGDRVSITCKASQDVSTAVAWYQQKPGQSPKLLIYSASYRYPGVPDRFTGSGSGTDFTFTISSVQAEDLALYYCQQHYSTPWTFGGGTKLEIKR |  |  |  |  | 0.0286 nM | 1.3e-05 s⁻¹ | 454000 M⁻¹ s⁻¹

From US20200262928A1 (GREEN CROSS, published 2020)
